Assay results as given in doi:10.1101/2023.06.02.543398 (bioRxiv, 2023).
Ends that are not written are not given here.

B1: MAP7 MT-binding domain (MTBD), residues 59-170 (domain or fragment)
chain: PVLRVDDRQRLARERREEREKQLAAREIVWLEREERARQHYEKHLEERKKRLEEQRQKEERRRAAVEEKRRQRLEEDKERHEAVVRRTMERSQKPKQKHNRWSWGGSLHGSP

Experiments:
[1] = target: Taxol-stabilized microtubules from lyophilized tubulin (Cytoskeleton, Inc.) (UniProt P02550 1-451; P02554 1-445); test: ITC
[2] = target: B1; test: fluorescence polarisation

Sequence of Taxol-stabilized microtubules from lyophilized tubulin (Cytoskeleton, Inc.) (P02550 whole entry, chain 1 of 2): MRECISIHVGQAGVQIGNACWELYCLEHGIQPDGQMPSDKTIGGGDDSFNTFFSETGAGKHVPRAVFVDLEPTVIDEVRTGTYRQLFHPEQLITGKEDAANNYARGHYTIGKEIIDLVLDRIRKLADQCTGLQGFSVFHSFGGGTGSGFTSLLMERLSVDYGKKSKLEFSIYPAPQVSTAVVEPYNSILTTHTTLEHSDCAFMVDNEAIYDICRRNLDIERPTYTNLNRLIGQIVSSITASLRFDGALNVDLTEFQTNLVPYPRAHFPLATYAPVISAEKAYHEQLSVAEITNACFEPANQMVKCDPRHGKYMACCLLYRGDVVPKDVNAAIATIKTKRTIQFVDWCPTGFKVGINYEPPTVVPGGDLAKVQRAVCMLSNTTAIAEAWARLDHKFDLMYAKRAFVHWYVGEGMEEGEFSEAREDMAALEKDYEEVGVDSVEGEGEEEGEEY
Sequence of Taxol-stabilized microtubules from lyophilized tubulin (Cytoskeleton, Inc.) (P02554 whole entry, chain 2 of 2): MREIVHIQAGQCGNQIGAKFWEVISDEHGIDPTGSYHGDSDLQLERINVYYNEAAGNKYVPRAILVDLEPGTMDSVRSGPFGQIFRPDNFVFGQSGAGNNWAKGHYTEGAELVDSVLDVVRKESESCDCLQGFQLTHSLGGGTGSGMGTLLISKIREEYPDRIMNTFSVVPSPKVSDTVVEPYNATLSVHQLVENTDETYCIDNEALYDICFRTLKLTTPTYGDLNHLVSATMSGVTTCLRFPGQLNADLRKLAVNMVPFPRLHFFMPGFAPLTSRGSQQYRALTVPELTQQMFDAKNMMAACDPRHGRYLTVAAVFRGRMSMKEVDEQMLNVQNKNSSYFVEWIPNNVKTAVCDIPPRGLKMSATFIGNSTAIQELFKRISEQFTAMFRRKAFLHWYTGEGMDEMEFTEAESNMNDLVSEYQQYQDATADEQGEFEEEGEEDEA

B1
Kd [1]: 0.94 µM | stoichiometry N [1]: 0.51 ± 0.09 MAP7 MTBD to tubulin

SVEGEGEEEGEEY (also: NHS-fluorescein label, position not given here) [NHS-fluorescein-labelled α-tubulin carboxy-terminal tail peptide]
Kd [2]: 91.3 ± 17.5 µM
